From patent US20090311271A1 (Pfizer, published 2009)

B1: LOX1-11A2 (antibody, V domains shown)
VH: EEQLVESGGGLVQPGGSLKLSCLASGFTLSNYGMNWIRQAPGKGLEWVASISSSSSYFYYADTVKGRFTISREDAKNTLNLQMTSLRSEDTALYYCARGITIAAGFTMDAWGQGTSVTVSS
VL: DIQMTQSPTSLSASLGETVSIECRASEDIYNNLAWYQQKSGKSPQLLIYYASTLQDGVPSRFSGSGSGTQFSLKISGMQPEDEGLYYCLQGSKYPRTFGGGTKLELKR
notes: Rat anti-mouse LOX-1 monoclonal antibody; also called rat anti-mouse LOX-1 antibody 11A2
B2: purified recombinant human CRP (ligand, UniProt P02741 19-224, looked up)
chain: QTDMSRKAFVFPKESDTSYVSLKAPLTKPLKAFTVCLHFYTELSSTRGYSIFSYATKRQDNEILIFWSKDIGYSFTVGGSEILFEVPEVTVAPVHICTSWESASGIVEFWVDGKPRVRKSLKKGYTVGAEASIILGQEQDSFGGNFEGSQSLVGDIGNVNMWDFVLSPDEINTIYLGGPFSPNVLNWRALKYEVQGEVFTKPQLWP
modifications: biotin label in the AlphaScreen assays (biotin-CRP); unlabelled in ELISA and cell assays
notes: Bought protein; also called C-reactive protein; biotin-CRP
B3: LOX1-33F1 (antibody, V domains shown)
VH: QVQLKESGPGLVQPSQTLSLTCTVSGFSLTSHAVNWVRQPPGKGLEWIGAIWSGGTTDYNSGFRSRLSISRDTSKSQVLLKMNSLQTEDTAMYFCARGYDGYYYYAMDVWGQGTSVTVSS
VL: DIVMTQSPSSLAVSAGETVTINCKSSQSLLSSRNQKNYLAWYQQKPGQSPKLLIYLASTRESGVPDRFIGSGSGTDFTLTITSVQAEDLADYYCQQHYNYYTFGAGTKLELKR
notes: Rat anti-mouse LOX-1 monoclonal antibody; also called rat anti-mouse LOX-1 antibody 33F1

Columns and labels:
[1] = target: T1, recombinant mouse LOX-1 Fc protein (mouse, UniProt Q9EQ09 55-363, limits assumed); test: AlphaScreen competition: antibody against Bio-oxLDL binding to mFc-mLOX1
T1 construct: The order Fc then LOX-1 is read from the label mFc-mLOX1; also called mFc-mLOX1; not shown: Fc part (label 'mFc')
T1 sequence (Q9EQ09 55-363 limits assumed): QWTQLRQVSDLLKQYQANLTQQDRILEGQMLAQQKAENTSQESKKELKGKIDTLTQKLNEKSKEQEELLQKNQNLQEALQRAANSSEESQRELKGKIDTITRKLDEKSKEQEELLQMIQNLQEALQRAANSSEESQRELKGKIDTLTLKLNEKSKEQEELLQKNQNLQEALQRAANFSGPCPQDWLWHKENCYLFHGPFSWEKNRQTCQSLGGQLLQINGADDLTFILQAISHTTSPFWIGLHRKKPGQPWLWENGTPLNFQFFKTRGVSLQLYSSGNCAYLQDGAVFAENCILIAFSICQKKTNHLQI

[2] = target: T1, recombinant mouse LOX-1 Fc protein; test: as above; remark: listed apart in the source
[3] = target: T2, human LOX-1 expressed on the cell surface (human, UniProt P78380 1-273); test: flow cytometry, CRP on LOX/CHO cells
T2 construct: whole, on cells; also called CHO/LOX-1; CHO-LOX-1
Protocol: (§1) Cells were analyzed using a Becton Dickinson FACSCalibur® flow cytometer with CellQuest software (Becton Dickinson). Results are presented as the geometric mean fluorescence intensity (MFI).

[4] = target: T2, human LOX-1 expressed on the cell …; test: flow cytometry, CRP on CHO/LOX-1 cells, detected with rabbit anti-CRP antibody; FACS on CHO/LOX-1 cells, 4 C
Protocol: as §1

[5] = target: T2, human LOX-1 expressed on the cell …; test: flow cytometry: CRP (0-200 ug/ml) on CHO/LOX-1 cells, 60 min at 4 C, rabbit anti-CRP and labelled secondary antibody, MFI
Protocol: as §1

[6] = target: T1, recombinant mouse LOX-1 Fc protein; test: AlphaScreen competition: antibody against Bio-CRP binding to mFc-mLOX1
[7] = target: T1, recombinant mouse LOX-1 Fc protein; test: AlphaScreen competition: antibody against Bio-CRP binding to mFc-mLOX1; Bio-CRP + mFc-mLOX1 competition, not Bio-oxLDL

| Binder | IC50 [1] | IC50 [2] | Kd [3] | Kd [4] | Kd [5] | IC50 [6] | IC50 [7] |
| --- | --- | --- | --- | --- | --- | --- | --- |
| B1 | 0.127 µg/mL | 0.127 µg/mL | – | – | – | – | – |
| B2 | – | – | 747 nM | 86 µg/mL | 86.6 µg/mL | – | – |
| B3 | 0.03 µg/mL | 0.03 µg/mL | – | – | – | 0.193 µg/mL | 0.193 µg/mL |
